Laboratory results published in PMC12416549 (2024).
Numbering of substitutions follows the chain as printed. Names may count otherwise.

B1: A94L (designed binder)
chain: MTLQELLREEALRRAEAEAFRYALELLAEKFPEQKEYLLDLAEEIESQIRSLSGVDVEDVRKFLDKEWAWVKELLAEHPAELAEVEAARAARLLELRAEVEAKVAA
B2: E81I (designed binder)
chain: B1 chain with E81I, L94A
B3: G54Q (designed binder)
chain: B1 chain with G54Q, L94A
B4: A76H (designed binder)
chain: B1 chain with A76H, L94A
B5: A15H (designed binder)
chain: B1 chain with A15H, L94A
B6: K62C (designed binder)
chain: B1 chain with K62C, L94A
B7: E86P (designed binder)
chain: B1 chain with E86P, L94A
B8: F63W (designed binder)
chain: B1 chain with F63W, L94A
B9: L6C (designed binder)
chain: B1 chain with L6C, L94A
B10: E33N (designed binder)
chain: B1 chain with E33N, L94A
B11: K30L (designed binder)
chain: B1 chain with K30L, L94A
B12: V85K (designed binder)
chain: B1 chain with V85K, L94A
B13: L38T (designed binder)
chain: B1 chain with L38T, L94A
B14: A80H (designed binder)
chain: B1 chain with A80H, L94A
B15: Y37S (designed binder)
chain: B1 chain with Y37S, L94A
B16: K62R (designed binder)
chain: B1 chain with K62R, L94A
B17: A19Q (designed binder)
chain: B1 chain with A19Q, L94A
B18: L26G (designed binder)
chain: B1 chain with L26G, L94A
B19: R50S (designed binder)
chain: B1 chain with R50S, L94A
B20: I49T (designed binder)
chain: B1 chain with I49T, L94A
B21: R89P (designed binder)
chain: B1 chain with R89P, L94A
B22: E25H (designed binder)
chain: B1 chain with E25H, L94A
B23: K35R (designed binder)
chain: B1 chain with K35R, L94A
B24: L7S (designed binder)
chain: B1 chain with L7S, L94A
B25: E16H (designed binder)
chain: B1 chain with E16H, L94A
B26: P79N (designed binder)
chain: B1 chain with P79N, L94A
B27: A91K (designed binder)
chain: B1 chain with A91K, L94A
B28: E95V (designed binder)
chain: B1 chain with L94A, E95V
B29: K62L (designed binder)
chain: B1 chain with K62L, L94A
B30: R8Y (designed binder)
chain: B1 chain with R8Y, L94A
B31: R97I (designed binder)
chain: B1 chain with L94A, R97I
B32: P79L (designed binder)
chain: B1 chain with P79L, L94A
B33: L41Y (designed binder)
chain: B1 chain with L41Y, L94A
B34: A102Y (designed binder)
chain: B1 chain with L94A, A102Y
B35: K35I (designed binder)
chain: B1 chain with K35I, L94A
B36: R61H (designed binder)
chain: B1 chain with R61H, L94A
B37: R97K (designed binder)
chain: B1 chain with L94A, R97K
B38: E101W (designed binder)
chain: B1 chain with L94A, E101W
B39: L27E (designed binder)
chain: B1 chain with L27E, L94A
B40: A11W (designed binder)
chain: B1 chain with A11W, L94A
B41: V57D (designed binder)
chain: B1 chain with V57D, L94A
B42: A94M (designed binder)
chain: B1 chain with L94M
B43: L12E (designed binder)
chain: B1 chain with L12E, L94A
B44: M1D (designed binder)
chain: B1 chain with M1D, L94A
B45: F31E (designed binder)
chain: B1 chain with F31E, L94A
B46: F31Y (designed binder)
chain: B1 chain with F31Y, L94A
B47: R50K (designed binder)
chain: B1 chain with R50K, L94A
B48: L93Y (designed binder)
chain: B1 chain with L93Y, L94A
B49: L41R (designed binder)
chain: B1 chain with L41R, L94A
B50: W70R (designed binder)
chain: B1 chain with W70R, L94A
B51: A102P (designed binder)
chain: B1 chain with L94A, A102P
B52: L75G (designed binder)
chain: B1 chain with L75G, L94A
B53: H78Q (designed binder)
chain: B1 chain with H78Q, L94A
B54: E44F (designed binder)
chain: B1 chain with E44F, L94A
B55: E58F (designed binder)
chain: B1 chain with E58F, L94A

Target: T1, TNFR1 (Homo sapiens, UniProt P19438)
T1 chain: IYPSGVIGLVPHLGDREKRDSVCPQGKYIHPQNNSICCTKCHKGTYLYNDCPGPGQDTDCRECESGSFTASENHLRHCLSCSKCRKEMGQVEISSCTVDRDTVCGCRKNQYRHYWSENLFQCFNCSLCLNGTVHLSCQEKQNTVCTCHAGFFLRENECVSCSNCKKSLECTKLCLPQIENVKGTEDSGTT
Experiment: yeast display SC50

Row | Binder | apparent Kd (screen) [nM]
1 | B1 | 0.956
2 | B2 | 0.49
3 | B3 | 1.05
4 | B4 | 0.79
5 | B5 | 0.539
6 | B6 | 0.49
7 | B7 | 4.83
8 | B8 | 0.869
9 | B9 | 2.05
10 | B10 | 0.539
11 | B11 | 0.539
12 | B12 | 0.653
13 | B13 | 26.9
14 | B14 | 0.869
15 | B15 | 12.5
16 | B16 | 0.539
17 | B17 | 0.446
18 | B18 | 0.446
19 | B19 | 0.653
20 | B20 | 0.539
21 | B21 | 24.4
22 | B22 | 0.718
23 | B23 | 0.49
24 | B24 | 13.8
25 | B25 | 0.718
26 | B26 | 0.539
27 | B27 | 0.49
28 | B28 | 0.49

Row | Binder | apparent Kd (screen) [nM]
29 | B29 | 0.653
30 | B30 | 1.05
31 | B31 | 0.539
32 | B32 | 0.718
33 | B33 | 0.718
34 | B34 | 0.653
35 | B35 | 2.48
36 | B36 | 1.4
37 | B37 | 0.539
38 | B38 | 0.49
39 | B39 | 0.869
40 | B40 | 0.405
41 | B41 | 3.99
42 | B42 | 0.718
43 | B43 | 1.27
44 | B44 | 0.446
45 | B45 | 0.49
46 | B46 | 0.593
47 | B47 | 0.539
48 | B48 | 0.539
49 | B49 | 15.2
50 | B50 | 12.5
51 | B51 | 0.956
52 | B52 | 1.4
53 | B53 | 0.869
54 | B54 | 16.7
55 | B55 | 2.73
